Here are results for three molecules from patent US20240092918A1 (Novartis, published 2024).

Experiment [1] deals with T1, Human CCR7 (human, UniProt P32248 25-378).
T1 sequence: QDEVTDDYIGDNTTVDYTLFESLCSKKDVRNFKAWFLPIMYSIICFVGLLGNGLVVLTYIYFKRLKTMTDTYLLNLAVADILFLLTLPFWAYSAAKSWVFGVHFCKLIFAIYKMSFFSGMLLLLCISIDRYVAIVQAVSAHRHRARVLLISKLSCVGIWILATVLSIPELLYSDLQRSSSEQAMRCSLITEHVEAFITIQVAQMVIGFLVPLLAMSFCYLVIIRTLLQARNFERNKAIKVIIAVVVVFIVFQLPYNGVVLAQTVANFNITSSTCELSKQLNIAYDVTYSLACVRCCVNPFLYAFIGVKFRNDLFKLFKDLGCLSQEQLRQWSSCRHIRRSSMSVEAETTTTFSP
Nature of the experiment: cell-based or functional assay.

The target in experiment [2] is T1, Human CCR7. Briefly: FACS competition on DEL cells (CCR7+), antibody titrated up to 100 nM applied together with the competitor CCL19 kept at 1 uM (panel 'ligand 1uM'), detection anti-hFc.PE, MFI [panel ligand 1uM].
Another experiment concerns the target T2, Rat CCR7 (rat, UniProt P47774 25-378 (mouse entry)).
T2 construct: On NIH3T3 cells or CD4+ T cells of Wistar rats; also called NIH3T3.rat CCR7
T2 chain: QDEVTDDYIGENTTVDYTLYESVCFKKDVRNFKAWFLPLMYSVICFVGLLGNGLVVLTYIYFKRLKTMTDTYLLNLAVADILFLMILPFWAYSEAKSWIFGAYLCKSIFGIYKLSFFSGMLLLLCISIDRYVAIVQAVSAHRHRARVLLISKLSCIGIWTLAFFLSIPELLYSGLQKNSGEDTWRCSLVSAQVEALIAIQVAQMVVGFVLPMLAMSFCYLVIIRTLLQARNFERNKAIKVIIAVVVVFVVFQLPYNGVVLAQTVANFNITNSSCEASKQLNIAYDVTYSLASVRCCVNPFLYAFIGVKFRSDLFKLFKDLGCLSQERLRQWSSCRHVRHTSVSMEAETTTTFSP
Briefly: FACS, NIH3T3 cell series and CD4+ T cells. The protocol: (§1) For this purpose, CCR7 positive cells were harvested (adherent cells were detached with Accutase), washed twice with FACS buffer (PBS/3% FCS/0.02% sodium azide) and diluted to approximately 2×10⁶ cells/ml in FACS buffer. All subsequent steps were done on ice to prevent internalization of the receptor. 100 μl cell suspension/well were transferred into 96-well U-bottom plates (Falcon). 2×10⁵ cells/well were incubated with a serial dilution of antibody concentrations of the anti-CCR7 antibody-of-interest ranging across several logs, starting at a high of 100 nM for 60 minutes at 4° C., gently shaking. Following incubation, cells were spun down (1200 rpm, 2 min, 4° C.) and washed three times with FACS buffer. A fluorophore-conjugated anti-hFc gamma-APC (Jackson ImmunoResearch) detection antibody was added at 1:400 and samples were incubated for 1 h on ice in the dark, gently shaken. After a final wash, cells were resuspended in 100 μl of FACS buffer containing 0.2 μg/ml DAPI followed by readout on the flow cytometry machine (BD LSRFortessa Cell Analyzer; Cat #647177). Mean fluorescence intensity (MFI) of live, single cells was calculated in Flowjo 10.0.8 and exported into Graphpad Prism6 for EC50 determination.

Another experiment addresses T3, Mouse CCR7 (mouse, UniProt P47774 25-378).
T3 construct: On NIH3T3 cells or CD4+ T cells of CD-1 mice; also called NIH3T3.mouse CCR7
T3 sequence: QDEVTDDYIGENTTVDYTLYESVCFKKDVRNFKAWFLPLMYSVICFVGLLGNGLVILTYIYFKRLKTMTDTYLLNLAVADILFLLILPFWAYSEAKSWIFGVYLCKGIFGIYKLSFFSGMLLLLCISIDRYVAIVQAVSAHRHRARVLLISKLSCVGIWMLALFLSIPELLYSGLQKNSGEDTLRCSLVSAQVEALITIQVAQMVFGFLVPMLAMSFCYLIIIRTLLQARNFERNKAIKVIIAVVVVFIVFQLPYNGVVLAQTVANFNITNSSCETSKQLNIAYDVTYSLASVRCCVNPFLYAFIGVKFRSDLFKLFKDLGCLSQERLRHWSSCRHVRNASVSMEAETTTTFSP
Briefly: FACS, NIH3T3 cell series and CD4+ T cells. How it is done: as §1
(Flow cytometry measures light scatter and fluorescence of single cells or particles in a stream.)

In experiment [3] the target is T4, recombinant CCR7 (Origene #TP306614) (human, UniProt P32248 25-378, limits assumed).
T4 construct: Bought protein coated on ELISA plates; also called recombinant hCCR7
T4 sequence (looked up): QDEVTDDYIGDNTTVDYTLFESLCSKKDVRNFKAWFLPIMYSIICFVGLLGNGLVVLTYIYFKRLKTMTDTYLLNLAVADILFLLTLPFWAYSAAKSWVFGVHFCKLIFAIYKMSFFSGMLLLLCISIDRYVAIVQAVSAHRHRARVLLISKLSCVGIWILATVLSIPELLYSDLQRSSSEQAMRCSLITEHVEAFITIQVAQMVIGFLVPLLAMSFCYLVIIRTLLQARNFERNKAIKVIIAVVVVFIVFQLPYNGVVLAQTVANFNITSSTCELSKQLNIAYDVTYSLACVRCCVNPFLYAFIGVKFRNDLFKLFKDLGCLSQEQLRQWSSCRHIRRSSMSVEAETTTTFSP
Briefly: ELISA, plate coated with 3.5 ug/ml recombinant CCR7 (Origene #TP306614), antibody in serial dilution, detection anti-hFc gamma-HRP, absorbance at 650 nm. A general note: An ELISA detects its analyte on a solid surface through an enzyme-linked reagent.
Description: Binding and affinity was also assessed in an ELISA-based assay using recombinant CCR7 (Origene #TP306614). Maxisorp™ 384-well plates (Thermo Nunc) were coated with 3.5 μg/ml of recombinant CCR7 diluted in PBS. After blocking with 3% BSA (bovine serum albumin) in PBS for 1 hr at room temperature, washing plates 3× with PBS-T (0.01% Tween 20 in PBS), primary antibodies were added in a serial dilution and incubated for 1 hr at room temperature.

B1: 674J13 (Humanized, CysMab DAPA) (antibody, human IgG1, kappa, V domains shown)
VH: DVQLQESGPGLVKPSQTLSLTCTVSGYSITSGYSWHWIRQHPGKGLEWMAHIHSSGSTNYNPSLKSRITISRDTSKNQFSLKLSSVTAADTAVYYCARGGVQAFAYWGQGTLVTVSS
VL: EIVLTQSPATLSASPGERVTMSCSASSSVIYMHWYQQKPGQAPRRWIYDTSKLASGVPARFSGSGSGTDYTLTISSMEPEDAAVYYCQQWSSNPLTFGQGTKLEIKR
notes: Human IgG1 kappa, E152C/S375C, D265A/P329A; In the pHrodo assay it carried maleimide-pHrodo (DAR 4); also called 674J13.CysMab.DAPA; 674J13.DAPA
The term EC50 (read off the curve) denotes the midpoint of the concentration-response curve. In the case of B1, in the experiment with Human CCR7 [1], the “pHrodo (6 h MFI), uptake of pHrodo-labelled antibody at 5 ug/ml, CD4+ T cells (2000 receptors)” value worked out at 402 MFI; the “pHrodo (6 h MFI), uptake of pHrodo-labelled antibody at 5 ug/ml, CMLT1 cells (19583 receptors)” value amounted to 561 MFI; the “pHrodo (6 h MFI), uptake of pHrodo-labelled antibody at 5 ug/ml, DEL cells (110685 receptors)” value is 3780 MFI; the “pHrodo (6 h MFI), uptake of pHrodo-labelled antibody at 5 ug/ml, JVM3 cells (8717 receptors)” value came out at 146 MFI. In the experiment with Human CCR7 [1], the “pHrodo (6 h MFI), uptake of pHrodo-labelled antibody at 5 ug/ml, Jeko-1 cells (28852 receptors)” value came to 1390 MFI; the “pHrodo (6 h MFI), uptake of pHrodo-labelled antibody at 5 ug/ml, KE97 cells (152093 receptors)” value was 4420 MFI; the “pHrodo (6 h MFI), uptake of pHrodo-labelled antibody at 5 ug/ml, L540 cells (167549 receptors)” value is 11800 MFI; the “pHrodo (6 h MFI), uptake of pHrodo-labelled antibody at 5 ug/ml, L1236 cells (61602 receptors)” value stood at 5820 MFI. In addition, in the experiment with Human CCR7 [1], the “pHrodo (6 h MFI), uptake of pHrodo-labelled antibody at 5 ug/ml, MJ cells (111121 receptors)” value was determined as 3260 MFI; the “pHrodo (6 h MFI), uptake of pHrodo-labelled antibody at 5 ug/ml, MOTN1 cells (84200 receptors)” value worked out at 2540 MFI; the “pHrodo (6 h MFI), uptake of pHrodo-labelled antibody at 5 ug/ml, Mec2 cells (50840 receptors)” value was 3000 MFI. Moreover, the half-maximal effective concentration (EC50 (read off the curve)) with Human CCR7 [2] was 2 to 3 nM.

B2: 121G12 humanized CysMab (Fc Wild Type) (antibody, human IgG1, V domains shown)
VH: EVQLVESGGGLVKPGGSLRLSCAASGFTFSTYAMSWVRQAPGKGLEWVATISDAGSYSYYPDNVKGRFTISRDNAKNSLYLQMNSLRAEDTAVYYCARRGSRYEEYYVMDYWGQGTTVTVSS
VL: EIVLTQSPATLSVSPGERVTLSCRASQSISNNLHWYQQKPGQAPRLLIKYASQSISGIPARFSGSGSGTDFTLTISSVEPEDFGVYFCQQSSSWLTFGQGTKLEIK
notes: Human IgG1 kappa with E152C/S375C (CysMab) and wild type Fc
For B2, the binding result with Rat CCR7 and with Mouse CCR7 was “no binding” throughout.

B3: 121G12 (Humanized CysMab, DAPA) (antibody, human IgG1, kappa)
heavy: EVQLVESGGGLVKPGGSLRLSCAASGFTFSTYAMSWVRQAPGKGLEWVATISDAGSYSYYPDNVKGRFTISRDNAKNSLYLQMNSLRAEDTAVYYCARRGSRYEEYYVMDYWGQGTTVTVSSASTKGPSVFPLAPSSKSTSGGTAALGCLVKDYFPCPVTVSWNSGALTSGVHTFPAVLQSSGLYSLSSVVTVPSSSLGTQTYICNVNHKPSNTKVDKRVEPKSCDKTHTCPPCPAPELLGGPSVFLFPPKPKDTLMISRTPEVTCVVVAVSHEDPEVKFNWYVDGVEVHNAKTKPREEQYNSTYRVVSVLTVLHQDWLNGKEYKCKVSNKALAAPIEKTISKAKGQPREPQVYTLPPSREEMTKNQVSLTCLVKGFYPCDIAVEWESNGQPENNYKTTPPVLDSDGSFFLYSKLTVDKSRWQQGNVFSCSVMHEALHNHYTQKSLSLSPGK
light: EIVLTQSPATLSVSPGERVTLSCRASQSISNNLHWYQQKPGQAPRLLIKYASQSISGIPARFSGSGSGTDFTLTISSVEPEDFGVYFCQQSSSWLTFGQGTKLEIKRTVAAPSVFIFPPSDEQLKSGTASVVCLLNNFYPREAKVQWKVDNALQSGNSQESVTEQDSKDSTYSLSSTLTLSKADYEKHKVYACEVTHQGLSSPVTKSFNRGEC
notes: Human IgG1 kappa, E152C/S375C, D265A/P329A; In the pHrodo assay it carried maleimide-pHrodo (DAR 4); also called 121G12.CysMab.DAPA; 121G12.DAPA
Regarding B3, in the experiment with Human CCR7 [1], the “pHrodo (6 h MFI), uptake of pHrodo-labelled antibody at 5 ug/ml, CD4+ T cells (2000 receptors)” value is 278 MFI; the “pHrodo (6 h MFI), uptake of pHrodo-labelled antibody at 5 ug/ml, CMLT1 cells (19583 receptors)” value came to 301 MFI; the “pHrodo (6 h MFI), uptake of pHrodo-labelled antibody at 5 ug/ml, DEL cells (110685 receptors)” value was determined as 1910 MFI; the “pHrodo (6 h MFI), uptake of pHrodo-labelled antibody at 5 ug/ml, JVM3 cells (8717 receptors)” value turned out to be 148 MFI. In the experiment with Human CCR7 [1], the “pHrodo (6 h MFI), uptake of pHrodo-labelled antibody at 5 ug/ml, Jeko-1 cells (28852 receptors)” value turned out to be 450 MFI; the “pHrodo (6 h MFI), uptake of pHrodo-labelled antibody at 5 ug/ml, KE97 cells (152093 receptors)” value stood at 1570 MFI; the “pHrodo (6 h MFI), uptake of pHrodo-labelled antibody at 5 ug/ml, L540 cells (167549 receptors)” value amounted to 6840 MFI; the “pHrodo (6 h MFI), uptake of pHrodo-labelled antibody at 5 ug/ml, L1236 cells (61602 receptors)” value was 1240 MFI. For the same molecule, in the experiment with Human CCR7 [1], the “pHrodo (6 h MFI), uptake of pHrodo-labelled antibody at 5 ug/ml, MJ cells (111121 receptors)” value was 1650 MFI; the “pHrodo (6 h MFI), uptake of pHrodo-labelled antibody at 5 ug/ml, MOTN1 cells (84200 receptors)” value was 1030 MFI; the “pHrodo (6 h MFI), uptake of pHrodo-labelled antibody at 5 ug/ml, Mec2 cells (50840 receptors)” value was determined as 1340 MFI. Further, the concentration for a half-maximal effect (EC50 (read off the curve)) in experiment [3] is roughly 0.7 nM.
